Reference: US20220372200

B1: thermolysin (protein)
chain: ITGTSTVGVGRGVLGDQKNINTTYSTYYYLQDNTRGNGIFTYDAKYRTTLPGSLWADADNQFFASYDAPAVDAHYYAGVTYDYYKNVHNRLSYDGNNAAIRSSVHYSQGYNNAFWNGSQMVYGDGDGQTFIPLSGGIDVVAHELTHAVTDYTAGLIYQNESGAINEAISDIFGTLVEFYANKNPDWEIGEDVYTPGISGDSLRSMSDPAKYGDPDHYSKRYTGTQDNGGVHINSGIINKAAYLISQGGTHYGVSVVGIGRDKLGKIFYRALTQYLTPTSNFSQLRAAAVQSATDLYGSTSQEVASVKQAFDAVGVK

Assays:
[1] = system: T1, poly[(KLAAm10-co-DMA30)-b-(DAAm280-co-DMA120)] (NP3)
T1 sequence: KLAKLAKKLAKLAK

[2] = system: T2, KLA peptide acrylamide monomer (KLAAm)
T2 sequence: KLAKLAKKLAKLAK

[3] = system: T3, poly[(KLAAm10-co-DMA10)-b-(DAAm280-co-DMA120)] (NP5)
T3 sequence: KLAKLAKKLAKLAK

poly(KLAAm10-co-DMA10) = system: T4, poly(KLAAm10-co-DMA10)
T4 sequence: KLAKLAKKLAKLAK

[4] = system: T5, poly[(KLAAm10-co-DMA30)-b-(DAAm70-co-DMA30)] (NP1)
T5 sequence: KLAKLAKKLAKLAK

[5] = system: T6, poly[(KLAAm10-co-DMA10)-b-(DAAm140-co-DMA60)] (NP4)
T6 sequence: KLAKLAKKLAKLAK

[6] = system: T7, poly[(KLAAm10-co-DMA30)-b-(DAAm140-co-DMA60)] (NP2)
T7 sequence: KLAKLAKKLAKLAK

[7] = biological target: T8, poly(PepAm21-co-DMA71) (P4)
T8 chain: GPLGLAGG

Molecule	percent of KLA peptide left uncleaved after 1 h (HPLC) [1]	percent cleavage by HPLC [2]	percent of KLA peptide left uncleaved after 1 h (HPLC) [3]	percent of side-chain peptides cleaved by HPLC (poly(KLAAm10-co-DMA10))	percent of KLA peptide left uncleaved after 1 h (HPLC) [4]	percent of KLA peptide left uncleaved after 1 h (HPLC) [5]	percent of KLA peptide left uncleaved after 1 h (HPLC) [6]	cleavage of side-chain peptides monitored by HPLC [7]
trypsin	more than 70% of KLA peptide survived during the first hour of cleavage	the KLA peptide underwent fast degradation, reaching 100% cleavage within 1 h	more than 70% of KLA peptide survived during the first hour of cleavage	more than 90% of the side-chain peptides were cleaved within 1 h	more than 70% of KLA peptide survived during the first hour of cleavage	more than 70% of KLA peptide survived during the first hour of cleavage	more than 70% of KLA peptide survived during the first hour of cleavage	–
B1	–	–	–	–	–	–	–	the polypeptide brushes were rapidly cleaved within 1 hour under the investigated conditions
